Data from patent publication US11939377B2, “Affinity matured CD22-specific monoclonal antibody and uses thereof” (The U.S.A., as represented by the Secretary, Department of …, priority 2018, dated 2024).

B1: m971-L7: affinity matured human monoclonal antibody specific for CD22; VH SEQ ID NO: 4, VL SEQ ID NO: 5, scFv SEQ ID NO: 6 (antibody, V domains shown)
VH: QVQLQQSGPGMVKPSQTLSLTCAISGDSVSSNSVAWNWIRQSPSRGLEWLGRTYYRSTWYNDYAVSMKSRITINPDTNKNQFSLQLNSVTPEDTAVYYCAREVTGDLEDAFDIWGQGTMVTVSS
VL: DIQMIQSPSSLSASVGDRVTITCRASQTIWSYLNWYRQRPGEAPNLLIYAASSLQSGVPSRFSGRGSGTDFTLTISSLQAEDFATYYCQQSYSIPQTFGQGTKLEIK

Tests used:
[1] = system: CD22 expression on ALL and DLBCL cell lines (Nalm6, Kopn8, SEM, Pfeiffer, Toledo, PDX); test: CD22 expression on leukemia/lymphoma cells by flow cytometry after drug exposure in vitro; assay type: cell-based, human; conditions: Enzastaurin 10 μM, Staurosporine 100 μM, 24 hours
Method: FIGS. 3A-3D: (FIG. 3A) Four cell lines (Nalm6, Kopn8, Pfieffer and Toldeo) were co-incubated with 1 ng/ml Bryostatin 1 for 24 hours and analyzed using flow cytometry one day after Bryostatin 1 exposure. Site density was analyzed using standardized Quantibrite-PE beads. (FIG. 3B) Cell lines were co-incubated with 1 ng/ml Bryostatin 1 for 24 hours, washed, and analyzed using flow cytometry at 1 and 7 days after Bryostatin 1 exposure. Fold change was calculated based on site density: (Cell line Bryostatin 1—Cell line DMSO)/Cell line DMSO. (FIG. 3C) NSG mice were injected with 1×10^6 GPF-positive Nalm6 leukemia cells on Day 0. Bryostatin 1 was administered at 0.8 μg/kg on Day 3. Mice were sacrificed 7 and 12 days after Bryostatin 1 injection and CD22 was evaluated by flow cytometry. (FIG. 3D) CD22-low relapse PDX cell line was cultured in vitro with 1 nmol/L Bryostatin 1 for 24 hours and measured for CD22 expression using CD22 antibody.
FIGS. 10A-10E: (FIG. 10A) Three cell lines (Toldeo, Kopn8 and Nalm6) were co-incubated with Bryostatin 1 at varying concentrations for 24 hours. At 24 hours, cells were collected for protein kinase C (PKC)-βII isoform analysis by western blot. (FIG. 10B) KOPN8 or SEM cell lines were exposed to Bryostatin 1 for 16, 24, 48 or 72 hours. RNA was extracted from cells and analyzed using RNAseq. (FIG. 10C) Immunofluorescent staining of CD22 was conducted through permeabilization followed by staining of CD22. (FIG. 10D) Four cell lines were co-incubated with various combinations of Enzastaurin (10 μM), Staurosporine (100 μM), or Bryostatin 1 (1 nM) for 24 hours. CD22 expression was assessed using flow cytometry. MFI fold change=CD22 MFI^Bryostatin1/CD22 MFI^DMSO. (FIG. 10E) Cell lines were co-incubated with 1 nM Bryostatin 1 for 24 hours and measured for CD22 expression using CD22-PE antibody. MFI fold change=CD22 MFI^Bryostatin 1/CD22 MFI^DMSO.
FIG. 11: CD22^lo or parental Nalm6 cell lines were exposed to 1 ng/ml Bryostatin 1 for 24 hours. CD22 expression was assessed using flow cytometry.
For all in vitro experiments and tumor/CAR pretreatment prior to intravenous injection, Bryostatin 1 was administered to cells at a concentration of 1 ng/mL. Dimethyl sulfoxide (DMSO) vehicle control was administered to control-treated cells at an equal volume. Prior to co-culture or intravenous injection, Bryostatin 1- and DMSO-treated cells were washed 3x in sterile PBS. For all in vivo experiments, Bryostatin 1 was diluted in PBS and administered via intraperitoneal injection at a dose of 40 μg/kg (1 μg/25 g mouse). For control-treated groups, an equal volume of DMSO was diluted in PBS and administered in the same manner
FACS analysis of cell surface CAR and protein expression was performed using an LSR II Fortessa flow cytometer (BD Biosciences). CD22-CAR was detected by incubation with 22-Fc (R&D Systems), followed by incubation with human IgG-specific PE-F(ab)2 (Thermo Fisher Scientific). The following human monoclonal antibodies were used for detection of cell surface proteins: CD22-APC, CD22-PE, CD19-Pacific Blue, CD45-PerCP/Cy5.5, CD3-APC/Cy7, PD1-PE/Cy7, LAG3-APC, TIM3-Pacific Blue, CD8-APC, CD8-PE/Cy7, CD45RA-APC, CD45RO-PE/Cy7, CCR7-Pacific Blue, CD4-Pacific Blue, CD69-APC (all from BioLegend). CD22 site density was determined using QuantiBrite-PE beads (BD Biosciences) using methods previously described (Jasper et al., Cytometry B Clin Cytom 80(2):83-90, 2011). Dead cells were identified using eFluor 506 fixable viability dye (Thermo Fisher Scientific). GFP-expressing leukemia cells were identified through the FITC channel.

[2] = biological target: CD22 extracellular domain (ECD) (Homo sapiens, UniProt P20273); test: BIAcore surface plasmon resonance of scFv binding to immobilized CD22 ECD-Fc
Method: FIGS. 13A-13F: (FIG. 13A) BIAcore analysis was used to evaluate association and dissociation curves of various scFvs. […] (FIG. 13B) CD22^V1 or CD22 CART were co-cultured with CD22^neg or CD22^lo leukemia and evaluated at 24 hours for PD1 expression through flow cytometry on a Fortessa flow machine. (FIGS. 13C-13F) Mice were injected with CD22^lo or Nalm6 leukemia on Day 0. […] Bone marrow cells were stained for flow cytometry and analyzed on Fortessa flow machine. Statistics were calculated using unpaired t-test (** p<0.0021).
Purified CD22 ECD-Fc fusion protein was diluted in 10 mM acetic acid buffer, pH 5.0, immobilized on a CMS biosensor chip for 1400 RU using an amine coupling kit. The running buffer was HBS-EP (10 mM HEPES, pH 7.4, 150 mM NaCl, 3 mM EDTA, 0.05% surfactant P20). The scFvs diluted in running buffer were allowed to flow through the cells at concentrations 0.32, 1.6, 8, 40 and 200 nM. After a 10-minute of dissociation, the chip was regenerated with 10 mM acetic acid, pH 4.0, 0.5 M NaCl. The data were fitted with 1:1 binding model and the dissociation rate constant was estimated with the BIAevaluation software.

| Molecule | upregulation of CD22 [1] | affinity relative to original scFv m971 ([2]; as measured by BIAcore) | Kd ([2]; scFv, bound from instrument limit kd) [pM] | Kd ([2]; scFv, bound from instrument limit kd 1.0×10^−5 / 5.6×10^5) [pM] | calculated dissociation rate constant kd ([2]; scFv, lower than the kd measurable by BIAcore X-100 (1.0×10^−5 l/s)) [L/s] |
| --- | --- | --- | --- | --- | --- |
| Cn1cc(C2=C(c3cn(C4CCN(Cc5ccccn5)CC4)c4ccccc34)C(=O)NC2=O)c2ccccc21 [Enzastaurin] | neither the PKCβII inhibitor, Enzastaurin, nor a broad PKC inhibitor, Staurosporine, was able to upregulate CD22 | – | – | – | – |
| CN[C@@H]1C[C@H]2O[C@@](C)([C@@H]1OC)n1c3ccccc3c3c4c(c5c6ccccc6n2c5c31)C(=O)NC4 [Staurosporine] | neither the PKCβII inhibitor, Enzastaurin, nor a broad PKC inhibitor, Staurosporine, was able to upregulate CD22 | – | – | – | – |
| B1 | – | more than 1000 fold | < 18 | < 18 | 1.1e-06 |
